The results in this text go back to patent US20150175707A1.

Assay [1] addresses IgG1-005-E345R/E430G/Y436I/S440K (human). The experiment in a line: HP-SEC of an equimolar mixture, PBS pH 7.4; Fc:Fc hetero-oligomerization. On the technique in general: SEC sorts molecules by how far they enter the pores of the column.
For assay [2], the target named is IgG1-005-E345R/E430G/S440K (human). Described as above.
In assay [3] the target is Protein A (ready-to-use protein A sensortips, Fortebio) (Staphylococcus aureus) (UniProt P38507). The experiment in a line: Octet QK, protein A sensor tips, against an IgG standard curve; A280 concentration of the sample 3818 µg/ml. A general note: In BLI a coated tip is dipped into the sample, and binding shifts an interference pattern.
Assay [4] deals with FcγRIIIa receptor, V158 (high affinity) variant, on Jurkat effector cells (UniProt P08637). The experiment in a line: cell-based or functional assay.
In assay [5] the target is Protein A (ready-to-use protein A sensortips, Fortebio) (Staphylococcus aureus) (UniProt P38507). The experiment in a line: ratio of the concentrations by A280 and by Octet protein A sensor tips.
Assay [6] addresses C1q from pooled human serum (human) (UniProt P02745). The experiment in a line: C1q binding ELISA; antibody dilution series coated, 3% pooled human serum as C1q source, anti-C1q detection.
In assay [7] the target is IgG1-005-E345R/E430G/S440Y (human). The experiment in a line: HP-SEC with multiple angle light scattering; Fc:Fc self-oligomerization.
The target in assay [8] is Protein A (ready-to-use protein A sensortips, Fortebio) (Staphylococcus aureus) (UniProt P38507). The experiment in a line: Octet QK, protein A sensor tips, against an IgG standard curve; A280 concentration of the sample 2905 µg/ml.
The target in assay [9] is IgG1-005-E345R/E430G/S440Y (human). The experiment in a line: dynamic light scattering, 2.86 mg/mL in PBS pH 7.4; Fc:Fc self-oligomerization.

On to “IgG1-005-E345R/E430G/K439E/S440Y (antibody)”, for which the % multimers (HP-SEC) turned out to be 93% in assay [1] and 65% in assay [2].

The term EC50 denotes the concentration that produces a half-maximal response. Higher therefore signals a need for much substance. Regarding “HuMab 005 (wild type IgG1-005), fully human IgG1,κ antibody against human CD38”, the Octet-Protein A (apparent IgG concentration) in assay [3] was determined as 3620 µg/mL. In assay [4], this substance yielded an EC50 (ADCC reporter assay) of 0.0095 µg/mL and a Maximal signal (ADCC reporter assay) of 335000 RLU. In addition, in assay [5], the A280/Protein A × 100 (%) turned out to be 0.95%. The substance also came in with an EC50 in assay [6] of 1.55 µg/mL.

The substance HuMab 005 mutant E345R (antibody) registered a half-maximal effective concentration (EC50) in assay [6] of 0.836 µg/mL.

In assay [4], IgG1-005-E345R/E430G/S440Y (antibody) showed an EC50 (ADCC reporter assay) of 0.036 µg/mL and a Maximal signal (ADCC reporter assay) of 394000 RLU. In addition, the A280/Protein A × 100 (%) in [5] came to 0.71%. Also, in assay [7], the apparent average MW of the multimeric peak (MALS) was determined as 772 kDa and the monomeric subunits per complex (MALS) (monomeric subunits) was 5.4. For the same substance, the Octet-Protein A (apparent IgG concentration) in assay [8] is 2050 µg/mL. In [9], the apparent MW (DLS) amounted to 876 kDa and the monomeric subunits per complex (DLS) (monomeric subunits) was determined as 6.17. In addition, in assay [6], the concentration for a half-maximal effect (EC50) is 0.52 µg/mL.
